Experimental data from the RNAGym collection of RNA variant scans (doi:10.7554/elife.90254).

B1: OR4K15 (parent)
chain: GUUAACGGUCAUAGGCCAUGGAAACUAGGAGCACCAUUUCGCUGCCAGUGAAGAAAUGAACAAAGAAAAUCUGGGCCAGGCAGGCAUCAAAAGAAAUAGUCUUGCGCUCAACCAGAAAGUCUGUAAUCAUUUUAAGGGUA

Variants of: B1
Assay: self-cleavage, relative activity (ratio to wild type); higher = more cleavage; in vitro, sequencing; the parent is a self-cleaving ribozyme

| Variant | self-cleavage |
| --- | --- |
| GUUAACGGUCAUAGGCCAUGGAAACUAGGAGCACCAUUACGCAGCCAGUGAAGAAAUGAACAAAGAAAAUCUGGGCCAGGCAGGCAUCAAAAGAAAUAGUCUUGCGCUCAACCAGAAAGUCUGUAAUCAUUUUAAGGGUA [U39A U43A] | 1.66 |
| GGUAACGGUCAUAGGCCAUGGAAACUAGGAGCACCAUUUCGCUGCCAGUGAAGAAAUGAACAAAGAAAAUCUGGGCCAGGCAGGCAUCAAAAGAAAUAGUCUUGCGCUCAACCAGGAAGUCUGUAAUCAUUUUAAGGGUA [U2G A116G] | 0.37 |
| GUUAACGGUCAAAGGCCAUGGAAACUAGGAGCACCAUUUCGCUGCCAGUGAAGAAAUGAACAAAGAAAAUCUGGGCCAGGCAGGCAUCAAAAGAAAUAGUCCUGCGCUCAACCAGAAAGUCUGUAAUCAUUUUAAGGGUA [U12A U102C] | 1.73 |
| GUUAACGGUCAUAGGCCAUGGAAACUAGGAGCACCAUUUCGCUGCCAGUGAAGAAAUGAACGAAGAAAAUCUGGGCCAGGCAGGCAUCAGAAGAAAUAGUCUUGCGCUCAACCAGAAAGUCUGUAAUCAUUUUAAGGGUA [A62G A90G] | 0.54 |
| GUUAACGGUCAUAGGCCAUGGAAACUAGGAUCACCAUUUCGCUGCCAGUGAAGAAAUGAACAAAGAAAAUCUGGGCCAGGCAGGCAUCAAAAGAAAUAGUCUUGCGCUCAACCAGAAAGUCUGUAAUCAUUUUAAGGGUA [G31U] | 1.7 |
| GUUAACGGUCAUAGGCCAUGGAAACUAGGAGCACCAUUUCGCUGCCAGUGAAGAAAUGAACAAAGACAAUCUGGGCCAGGCAGGCAUCAAAAGAAAUAGUCUUGCGCUCAACCAGAAAGUCUGUAAUCAUUUUAAGGGCA [A67C U139C] | 2.18 |
| GUUAACGGUCAUAGGCCAUGGAAACUAGGAGCACCAUUUCGCUGCCAAUGAAGAAAUGAACAAAGAAAAUCUGGGCCAGGCAGGCAUCAAAAGAAAUAGUCCUGCGCUCAACCAGAAAGUCUGUAAUCAUUUUAAGGGUA [G48A U102C] | 1.99 |
| GUUAACGGUUAUAGGCCAUGGAAACUAGGAGCACCAUUUCGCUGCCAGUGAAGAAAUGAACAAAGAAAAUCUGGGCCAGGCUGGCAUCAAAAGAAAUAGUCUUGCGCUCAACCAGAAAGUCUGUAAUCAUUUUAAGGGUA [C10U A82U] | 0.13 |
| GUUAACGGUCAUAGGCCAUGGAAACUAGGAGCACCAUUUCGCUGCCAGUGAAGAUAUGAACAAAGAAAAUCUGGGCCAGGCAGGCAUCAAAAGAAAUAGUCUUGCGCUCGACCAGAAAGUCUGUAAUCAUUUUAAGGGUA [A55U A110G] | 0.23 |
| GUUAACGGUCAUAGGCCAUGGAAACUAGGAGCACCAUUUCGCUGCCAGUGAAGAAAUGAACAAAGAAAAUCUGGGCCAGGCAGGCAUCAAAAGAAAUAGUCUUGCGCUCAACCAGUAAGUCAGUAAUCAUUUUAAGGGUA [A116U U122A] | 0.25 |
| GUUAACGGUCAUAGGCCAUGGAAACUAGGAGCACCAUUUCGCAGCCAGUGAAGAAAUGAACAAAGAAAAUCUGGGCCAGGCAGGCAUCAAAAGAAAUAGUCUUGCGCUCAACCAGAAAGUCUGUAAUCGUUUUAAGGGUA [U43A A129G] | 0.65 |
| GUUAACGGUCGUAGGCCAUGGAAACUAGGAGCACCAUUUCGCUGCCAGUGAAGAAAUGAACAAAGAAAAUCUGAGCCAGGCAGGCAUCAAAAGAAAUAGUCUUGCGCUCAACCAGAAAGUCUGUAAUCAUUUUAAGGGUA [A11G G74A] | 0.41 |
| GUUAACGGUCAUAGGCCAUGGAAACUAGGAGCACCAUUUCGCUGCCAGUGGAGAAAUGAACAAAGAAAAUCUGGGCCAGGCAGGCAUCAAAAGAAAUAGUCUUGCGCUCAACCAGAAAGCCUGUAAUCAUUUUAAGGGUA [A51G U120C] | 0.85 |
| GUUAACGGUCAUAGGCCAUGGAAACUAGGAGCACCAUUUCGCAGCCAGUGAAGAAAUGAACAAAGAAAAUCUGGGCCAGGCUGGCAUCAAAAGAAAUAGUCUUGCGCUCAACCAGAAAGUCUGUAAUCAUUUUAAGGGUA [U43A A82U] | 0.12 |
| GUUAACGGUCAUAGGCCAUGGAAACUAGGAGCACCAUUCCGCUGCCAGUGAAGAAAUGAACAAAGAAAAUCUGGGCCAGGCAGGCAUCAAAAGAAAUAGUCUUGCGCUCGACCAGAAAGUCUGUAAUCAUUUUAAGGGUA [U39C A110G] | 0.14 |
| GUCAACGGUCAUAGGCCAUGGAAACUAGGAGCACCAUUUCGCUGCCAGUGAAGAAAUGAACAAAGAAAAUCUGGGCCAGGCAGGCAUCAAAAGAAAUAGUCUUGCGCUCAACCAGAAAGUCUGUAAUCAUUUUAAGGGUG [U3C A140G] | 0.65 |
| GUUAACGGUCAUAGGCCAUGGAAACUAGGAGCACCAUUUCGCUGCCAGUGAAGAAAUGAACAAAGAAAAUCUGGGCCAGGCAGGCACCAAAGGAAAUAGUCUUGCGCUCAACCAGAAAGUCUGUAAUCAUUUUAAGGGUA [U87C A92G] | 0.43 |
| GCUAACGGUCAUAGGCCAUGGAAACUAGGAGCACCAGUUCGCUGCCAGUGAAGAAAUGAACAAAGAAAAUCUGGGCCAGGCAGGCAUCAAAAGAAAUAGUCUUGCGCUCAACCAGAAAGUCUGUAAUCAUUUUAAGGGUA [U2C U37G] | 0.75 |
| GUUAACGGUCAUAGGCCAUGGAAACUAGGAGCACCAUUUCGCAGCCAGUGAAGAGAUGAACAAAGAAAAUCUGGGCCAGGCAGGCAUCAAAAGAAAUAGUCUUGCGCUCAACCAGAAAGUCUGUAAUCAUUUUAAGGGUA [U43A A55G] | 0.35 |
| GUUAGCGGUCAUACGCCAUGGAAACUAGGAGCACCAUUUCGCUGCCAGUGAAGAAAUGAACAAAGAAAAUCUGGGCCAGGCAGGCAUCAAAAGAAAUAGUCUUGCGCUCAACCAGAAAGUCUGUAAUCAUUUUAAGGGUA [A5G G14C] | 1.57 |
| GUUAACGGUCAUAGGCCAUGGAAGCUAGGAGCACCAUUUCGCUGCCAGUGAAGAAAUGAACAAAGAAAAUCUGGGCCAGGCAGGCAUCAAAAGAAAUAGUCUUGCGCUCAACCAGAAAGUCUGUAAACAUUUUAAGGGUA [A24G U127A] | 1.53 |
